Source: patent US20170362341A1

Key:
[1] = target: CD-30 on Karpas 299 and L540 cells (UniProt P28908); assay: FACS-based cell binding on L540 cells, Alexa-488 goat anti-human IgG detection, MFI normalised to the averaged maximum (% binding)
[2] = target: CD-30 on Karpas 299 and L540 cells (UniProt P28908); assay: flow cytometry on L540 cells, one site-total binding fit
[3] = target: CD-30 on Karpas 299 and L540 cells (UniProt P28908); assay: flow cytometry on Karpas 299 cells, one site-total binding fit
[4] = target: CD-30 on Karpas 299 and L540 cells (UniProt P28908); assay: FACS-based cell binding on Karpas 299 cells, Alexa-488 goat anti-human IgG detection, MFI normalised to the averaged maximum (% binding)
[5] = target: HER2 on SKBR3 cells (UniProt P04626); assay: flow cytometry on SKBR3 cells, one site specific binding fit; column head prints 'Cell Binding IC50, nM' (heads of c3 and c4 seem swapped)
[6] = target: HER2 on SKBR3 cells (UniProt P04626); assay: flow cytometry on SKBR3 cells

UniProt P28908, sequence (P28908 19-595 limits assumed): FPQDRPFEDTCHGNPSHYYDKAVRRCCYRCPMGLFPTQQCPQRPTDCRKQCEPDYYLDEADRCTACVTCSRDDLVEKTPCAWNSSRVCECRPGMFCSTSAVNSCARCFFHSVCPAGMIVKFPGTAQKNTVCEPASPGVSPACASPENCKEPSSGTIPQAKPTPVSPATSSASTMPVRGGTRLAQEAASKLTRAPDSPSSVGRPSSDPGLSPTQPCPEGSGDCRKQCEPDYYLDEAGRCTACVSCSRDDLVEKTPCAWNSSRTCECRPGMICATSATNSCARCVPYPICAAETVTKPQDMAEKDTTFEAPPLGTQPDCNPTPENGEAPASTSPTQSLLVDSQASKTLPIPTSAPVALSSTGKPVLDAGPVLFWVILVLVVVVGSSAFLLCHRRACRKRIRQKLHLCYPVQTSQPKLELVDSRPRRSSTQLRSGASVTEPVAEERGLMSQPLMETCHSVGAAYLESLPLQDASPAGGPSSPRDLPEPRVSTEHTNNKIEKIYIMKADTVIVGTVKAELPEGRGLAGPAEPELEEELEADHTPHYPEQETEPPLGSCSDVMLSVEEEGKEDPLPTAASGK

EC50 (read off the curve) [1] | Kd [2] | Kd [3] | EC50 (read off the curve) [4] | Kd [5] | Kd [6] | Substance
0.8 nM |  |  |  |  |  | Adcetris HC K121 unconjugated (antibody)
 | 1.3 nM | 0.52 nM | 0.4 nM |  |  | Aglycosylated Brentuximab IgG HC-K121 conjugated to DBCO-MMAF 2 (antibody)
0.6 nM | 1 nM | 0.5 nM | 0.4 nM |  |  | Aglycosylated Brentuximab IgG LC-N152 conjugated to DBCO-MMAF 2 (antibody)

More lines, now with the values behind:

Substance | EC50 (read off the curve) [1] | Kd [2] | Kd [3] | EC50 (read off the curve) [4] | Kd [5] | Kd [6]
Adcetris HC F404 unconjugated (antibody) | 1 nM |  |  |  |  | 
Aglycosylated Brentuximab IgG HC-F404 conjugated to DBCO-MMAF 2 (antibody) | 0.7 nM | 0.81 nM | 0.46 nM | 0.3 nM |  | 
Trastuzumab scFv (VL_VH) with pN3F at position (-1), conjugated to DBCO-MMAF |  |  |  |  | 14 nM | 
Trastuzumab scFv-Fc (-1) pN3F conjugated to DBCO-MMAF (Fc fusion) |  |  |  |  |  | 6.8 nM
